Test results reported in article PMC4596477, “Interaction of Myosin Phosphatase Target Subunit (MYPT1) with Myosin Phosphatase-RhoA Interacting Protein (MRIP): A Role of Glutamic Acids in the Interaction” (PLoS ONE, 2015).
Numbering of substitutions follows the chain as printed. In names and notes the source's numbering stands.

What was measured:
[1] = target: T1, MRIP^724-878 (myosin phosphatase-RhoA interacting protein, residues 724–878; CC2-CC4) (UniProt Q6WCQ1 724-878); assay: SPR; Biacore 3000, 25°C; LR immobilised (244.8 RU) by amine coupling on CM5, analyte MRIP^724-878 (85.6–0.7 μM); reference surface a nebulin-derived peptide; 50 mM potassium phosphate pH 7.4, 100 mM KCl; steady-state affinity fit; conditions: both partners purified
T1 construct: Tight homodimer in solution by AUC; the forward primer puts an NdeI ATG before the codons GAGCGAGGGTTTGCAGCAATG; source: E. coli BL21 (DE3), purified (chitin beads, C8 reversed-phase HPLC)
T1 sequence (looked up): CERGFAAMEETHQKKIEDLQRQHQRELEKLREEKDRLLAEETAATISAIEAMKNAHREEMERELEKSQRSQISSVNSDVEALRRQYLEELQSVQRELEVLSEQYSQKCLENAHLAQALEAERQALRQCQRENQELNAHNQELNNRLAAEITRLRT

[2] = target: T1, MRIP^724-878 (myosin phosphatase-RhoA …); assay: SPR; Biacore 3000, 25°C; MRIP^724-878 immobilised (1800 RU) by amine coupling on CM5, analytes CCLR (167–1 μM), CC (318–10 μM), LR (569–5 μM); reference surface G-actin; 50 mM potassium phosphate pH 7.4, 100 mM KCl; steady-state affinity fit; conditions: both partners purified
[3] = target: T2, MRIP^724-878 (Homo sapiens, UniProt Q6WCQ1); assay: AUC interaction of MYPT1 peptides (CC, LR and LR mutants) with MRIP^724-878; type: binding; conditions: equimolar mixture (CC: 50 μM each) and dilutions, pH 7.4, 100 mM KCl, 20°C
T2 construct: MRIP^724-878 (residues 724–878; CC2-CC4); made in house; host or cells: Escherichia coli BL21 (DE3)
T2 sequence (Q6WCQ1 725-879): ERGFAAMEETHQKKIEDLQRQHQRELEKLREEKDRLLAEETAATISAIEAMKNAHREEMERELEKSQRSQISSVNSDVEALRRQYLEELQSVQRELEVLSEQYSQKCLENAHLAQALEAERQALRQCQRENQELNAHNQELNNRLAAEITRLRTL
Text: (§1) To determine the minimal MRIP-binding region of MYPT1, AUC was employed to examine interactions between sub-domains of CCLR, CC (residues 924–990) and LR (residues 991–1030) with MRIP^724-878 (Fig 4A). CC is the putative coiled coil domain and LR contains 16 upstream amino acid residues (residues 991–1006) in addition to the leucine repeat (residues 1007–1028). MRIP^724-878 was chosen because of its good fit to a single component, single-species model. […] Global fitting of the mixture to a two-component model produced a good fit and the RMSD of the fit was 0.010 (Fig 4B; Fitting of CC).
The coiled coil is a common protein-protein interaction domain. The MRIP peptides in this study have putative coiled coil domains and are α-helical. In contrast, the MYPT1 peptide, LR is not α-helical even though it contains the leucine repeat. Thus, we hypothesized that charged residues of MYPT1 might participate in the MYPT1/MRIP interaction with its leucine residues. We generated various LR peptides representing mutations in charged residues (Fig 6A) and examined their bindings to MRIP^724-878 (Fig 6B).
Fig 6 Glutamic acids within LR enhance the MRIP-binding affinity. (A) Amino acid sequences of the wild-type LR (WT-LR) and mutant LR peptides. Charged residues are in bold, the leucine repeat is in Italic, and substitution mutations are underlined. (B) Time derivative s*lg(s*) graphs: Line, MRIP^724-878 alone (50 μM); filled-in circles, original mixture of MRIP^724-878/each mutant LR peptide (50 μM each except for R992D/R993D and E996K whose mixtures consisted of excess amount of the mutant LR peptides); open circles, a three-fold dilution of the original mixture. The molar mass of the complex differs slightly from that of MRIP^724-878 dimer (37.9 kDa vs 37.4 kDa), and thus the shift in the main peak position is not easily discernable in many cases.
The cDNA fragment encoding MRIP peptides were amplified using a full-length MRIP cDNA as a template with the following primer pairs: MRIP^545-878, 5’-[…]/5’[…]; MRIP^724-878, 5’-[…]/5’-[…]; MRIP^724-837, 5’-[…]/5’-[…]. The PCR products were ligated into pCR2.1-TOPO using the TA cloning system and sequenced in both directions. The IMPACT™ (Intein Mediated Purification with an Affinity Chitin-binding Tag) Kit (New England BioLabs) was used to express peptides in bacteria to obtain tag-free peptides. The PCR amplicon encoding MRIP peptides were fused in frame to the chitin binding domain of pTYB12 vector utilizing the NdeI/EcoRI restriction sites. The expression vectors for the MYPT1 peptides, CCLR (residues 924–1030), CC (residues 924–990), and LR (residues 991–1030) were constructed as described: In the reference literature, CCLR and LR were named CCLZ and LZ, respectively. Recombinant peptides were produced in Escherichia coli strain BL21 (DE3) and purified using chitin beads according to the manufacturer's protocol. For further purification, the eluent from chitin beads was loaded on a Vydac C8 reversed phase column and subjected to HPLC using an acetonitrile gradient. Purity and identity of the peptides were confirmed by polyacrylamide gel electrophoresis (PAGE) and mass spectrometry. For the mutagenesis study of LR, the wild-type and mutant LR peptides were synthesized, purified by reverse-phase HPLC, and lyophilized to dryness at the peptide core in Boston Biomedical Research Institute.
Sedimentation velocity experiments were done on a Beckman Instruments Optima XL-I analytical ultracentrifuge equipped with Rayleigh optics. The cells were equipped with sapphire windows and 12 mm charcoal-filled Epon centerpieces. Apparent sedimentation coefficient distribution patterns were computed by the time derivative method. Peptides were dialyzed against 50 mM potassium phosphate buffer (pH 7.4) containing 100 mM KCl, and 1 mM DTT at 4°C overnight and then subjected to AUC at 50,000 rpm and 20°C. […]

[4] = AUC of MYPT1 peptides alone (concentration dependence, self-association); type: physicochemical; conditions: CC alone, 107 μM and 3-, 9-fold dilutions, MRIP^724-878 alone, 50 μM and 3-, pH 7.4, 20°C
Text: as §1
Fig 4 LR contains sufficient residues for the MYPT1/MRIP interaction. […] CC; Concentration-normalized time derivative g(s*) plots of CC, MRIP^724-878, and equimolar mixtures of the two peptides: Black filled-in circles, an original CC alone (107 μM); dark gray filled-in circles, a 3-fold dilution of CC alone; light gray filled-in circles, a 9-fold dilution of CC alone; black filled-in triangles, an original MRIP^724-878 alone (50 μM); dark gray filled-in triangles, a 3-fold dilution of MRIP^724-878 alone; light gray filled-in triangles, a 9-fold dilution of MRIP^724-878 alone; a black line, an original equimolar mixture of MRIP^724-878/CC (50 μM each): a dark gray line, a 3-fold dilution of the mixture; a light gray line, a 9-fold dilution of the mixture. […]

[5] = target: T2, MRIP^724-878; assay: SPR, MYPT1 peptides as analytes over immobilized MRIP^724-878; type: binding; conditions: 25°C, pH 7.4, CCLR 167–1 μM, CC 318–10 μM, LR 569–5 μM
Protocol: To corroborate the results from AUC studies, SPR was employed. […] Equilibrium K d values were obtained by nonlinear curve fitting of reference-corrected curves using the steady-state affinity fitting model in BIAevaluation version 4–1.
Analytes CCLR, CC, LR: Interactions between analytes, CCLR (167–1 μM), CC (318–10 μM), and LR (569–5 μM) with immobilized ligand, MRIP^724-878 (1800 RU) after correction for nonspecific binding using G-actin (2230 RU). Shown is a representative out of 9 experiments for CCLR and 8 for LR in each, duplicates or triplicates. Insets show fittings of steady-state affinity. Ligand LR: Interaction of analyte, MRIP^724-878 (85.6–0.7 μM) with immobilized ligand, LR (244.8 RU) after correction for nonspecific binding using a nebulin-derived peptide (600 RU). Shown is a representative out of 6 experiments.
Binding analyses of SPR were conducted on a Biacore 3000 (GE Healthcare) at 25°C. Sensor chips and reagents for immobilization (1-ethyl-3-(3-dimethylaminopropyl) carbodiimide, N-hydroxyl-succinimide, and ethanolamine) were purchased from GE Healthcare. Peptides were immobilized onto a CM5 sensor chip at 232–5841 resonance units (RU) using amine coupling. Binding studies were done using two-fold serial dilutions of the peptides in 50 mM potassium phosphate buffer (pH 7.4) containing 100 mM KCl. […]

[6] = system: MRIP; set-up: method as in PMID 16243315; conditions: double point mutations in CC5; ref [12]; cited from earlier work

B1: LR, leucine repeat region of MYPT1 (residues 991–1030) (peptide, UniProt O14974 991-1030, looked up)
chain: ERRISEMEEELKMLPDLKADNQRLKDENGALIRVISKLSK
notes: no result of its own is told for it; also called WT-LR; source: E. coli BL21 (DE3), purified (chitin beads, C8 reversed-phase HPLC)
Kd [1]: 40 µM
Kd [2]: 195 µM

B2: CC: sub-domain of CCLR, residues 924–990; the putative coiled coil domain (protein, UniProt Q6WCQ1 924-990, looked up, fragment)
chain: KDELQTALRDKKYASDKYKDIYTELSIAKAKADCDISRLKEQLKAATEALGEKSPDSATVSGYDIMK
binding to MRIP^724-878 (g(s*) curves) [3]: no binding
concentration dependence of g(s*) curves [4]: superimposable, indicating concentration-independence
complex formation with immobilized MRIP^724-878 [5]: did not

B3: L905P/I912P: MRIP mutation employed by Mulder et al; double point mutation in CC5 (protein, UniProt Q6WCQ1 2-1025, looked up, variant L905P I912P)
Myosin phosphatase …: SAAKENPCRKFQANIFNKSKCQNCFKPRESHLLNDEDLTQAKPIYGGWLLLAPDGTDFDNPVHRSRKWQRRFFILYEHGLLRYALDEMPTTLPQGTINMNQCTDVVDGEGRTGQKFSLCILTPEKEHFIRAETKEIVSGWLEMLMVYPRTNKQNQKKKRKVEPPTPQEPGPAKVAVTSSSSSSSSSSSIPSAEKVPTTKSTLWQEEMRTKDQPDGSSLSPAQSPSQSQPPAASSLREPGLESKEEESAMSSDRMDCGRKVRVESGYFSLEKTKQDLKAEEQQLPPPLSPPSPSTPNHRRSQVIEKFEALDIEKAEHMETNAVGPSPSSDTRQGRSEKRAFPRKRDFTNEAPPAPLPDASASPLSPHRRAKSLDRRSTEPSVTPDLLNFKKGWLTKQYEDGQWKKHWFVLADQSLRYYRDSVAEEAADLDGEIDLSACYDVTEYPVQRNYGFQIHTKEGEFTLSAMTSGIRRNWIQTIMKHVHPTTAPDVTSSLPEEKNKSSCSFETCPRPTEKQEAELGEPDPEQKRSRARERRREGRSKTFDWAEFRPIQQALAQERVGGVGPADTHEPLRPEAEPGELERERARRREERRKRFGMLDATDGPGTEDAALRMEVDRSPGLPMSDLKTHNVHVEIEQRWHQVETTPLREEKQVPIAPVHLSSEDGGDRLSTHELTSLLEKELEQSQKEASDLLEQNRLLQDQLRVALGREQSAREGYVLQATCERGFAAMEETHQKKIEDLQRQHQRELEKLREEKDRLLAEETAATISAIEAMKNAHREEMERELEKSQRSQISSVNSDVEALRRQYLEELQSVQRELEVLSEQYSQKCLENAHLAQALEAERQALRQCQRENQELNAHNQELNNRLAAEITRLRTLLTGDGGGEATGSPLAQGKDAYELEVLPRVKESEPQYLKQEISSLKDELQTALRDKKYASDKYKDIYTELSIAKAKADCDISRLKEQLKAATEALGEKSPDSATVSGYDIMKSKSNPDFLKKDRSCVTRQLRNIRSKSVIEQVSWDT
oligomerization [6]: little oligomerization

B4: I919P/L926P: MRIP mutation employed by Mulder et al; double point mutation in CC5 (protein, UniProt Q6WCQ1 2-1025, looked up, variant I919P L926P)
Myosin phosphatase …: B3 Myosin phosphatase … with P905L, P912I, I919P, L926P
oligomerization [6]: little oligomerization
